Target: T1, anti-diuretic hormone (ADH, arginine-vasopressin) (UniProt P01185 20-28)
T1 chain: CYFQNCPRG
Experiment: graphene FET (drain current); 10 ag/mL to 1 pg/mL ADH in PBS; ID 116.26 to 338.64 uA at VG 8 V; sensor LOD 3.55 ag/mL; PBS (or human serum), 10 min incubation per concentration, PBS washes; pH and temperature not stated

B1: ADH-specific aptamer (ssDNA)
DNA: TCACGTGCATGATAGACGGCGAAGCCGTCGAGTTGCTGTGTGCCGATGCACGTGA
modifications: 5'-amine
- binding result: binds
